4 molecules from PMC10897365, “Molecular mechanism of allosteric activation of the CRISPR ribonuclease Csm6 by cyclic tetra-adenylate” (The EMBO Journal, 2023) can be followed below.

The target in one series is T1, TtCsm6 (Thermus thermophilus, UniProt Q53W17).
T1 construct: gene csm6; synthesized gene, N-terminal 6xHis tag removed with PreScission protease; expressed in E. coli Rosetta (DE3); homodimer; CARF-HTH-HEPN
T1 sequence (Q53W17 1-464): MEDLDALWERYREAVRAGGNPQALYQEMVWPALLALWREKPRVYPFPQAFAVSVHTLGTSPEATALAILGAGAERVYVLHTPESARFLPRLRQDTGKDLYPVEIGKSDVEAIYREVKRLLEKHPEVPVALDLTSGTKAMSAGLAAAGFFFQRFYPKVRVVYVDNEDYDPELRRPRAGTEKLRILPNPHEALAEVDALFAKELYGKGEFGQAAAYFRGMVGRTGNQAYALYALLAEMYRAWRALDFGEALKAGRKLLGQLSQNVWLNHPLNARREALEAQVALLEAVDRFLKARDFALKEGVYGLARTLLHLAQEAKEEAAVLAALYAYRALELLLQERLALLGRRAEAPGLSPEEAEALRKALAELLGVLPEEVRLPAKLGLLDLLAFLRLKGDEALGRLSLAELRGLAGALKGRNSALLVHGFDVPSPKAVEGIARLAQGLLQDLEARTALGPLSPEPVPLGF
Kind of series: crystal structure […] Å (co-crystallised with cA4). The format is binding. To be noted: post-cleavage state; two A2>P across the CARF dimer interface; pH 8.5, Mg2+ in crystal.

Series [1] deals with the molecule itself. The series can be described thus: crystal structure; TtCsm6 (12 mg/mL) pre-incubated with cA4 1:1.2 for 3 h at room temperature; hanging drop, 25 °C; post-cleavage state with two A2>P bound; homodimer.
Series [2] concerns the molecule itself. The series can be described thus: crystal structure; TtCsm6 K137A (13 mg/mL) alone; hanging drop, 25 °C; apo state, no metal ion in the HEPN domain; homodimer.
Series [3] concerns the molecule itself. Kind of series: crystal structure; TtCsm6 Y161A (10 mg/ml) pre-incubated with cA4 1:1.2 at 4 °C for 30 min; hanging drop, 25 °C; pre-cleavage state with cA4 bound; homodimer.

Residue numbers refer to the chain shown, from its start. In names and notes the source's numbering stands.

For the molecule `Nc1ncnc2c1ncn2[C@@H]1O[C@H](CO)[C@@H](OP(=O)(O)OC[C@H]2O[C@@H](n3cnc4c(N)ncnc43)[C@@H]3OP(=O)(O)O[C@@H]32)[C@H]1O` [A2 > P], on TtCsm6, the “crystal structure 1.81 Å (co-crystallised with cA4)” value is given as “cA4 in the CARF domain was cleaved into two A2 > P molecules”.

B1: Thermus thermophilus (Tt) Csm6, wild type (enzyme)
chain: T1 sequence (Q53W17 1-464)
notes: Csm6 of Thermus thermophilus, GenBank ID 81626039; synthesized cDNA in a modified pET vector; Crystallised after pre-incubation with cA4, which was cleaved to two A2>P in the crystal (post-cleavage state); Homodimer in the crystal; also called WT; source: E. coli Rosetta (DE3), purified (Ni-NTA, 15Q, Superdex 200); not shown: His6, N-terminal, cleaved
With B1, the binding result in series [1] was “binds”.

B2: TtCsm6 K137A mutant (enzyme, Thermus thermophilus)
chain: T1 sequence (Q53W17 1-464) with K137A
notes: Csm6 of Thermus thermophilus, GenBank ID 81626039, with K137A; Homodimer in the crystal; also called apo-TtCsm6 (Ni-free structure); source: E. coli Rosetta (DE3), purified (Ni-NTA, 15Q, Superdex 200); not shown: His6, N-terminal, cleaved
Take B2: the binding result in series [2] is recorded as “binds”.

B3: TtCsm6 Y161A mutant (enzyme, Thermus thermophilus)
chain: T1 sequence (Q53W17 1-464) with Y161A
notes: Csm6 of Thermus thermophilus, GenBank ID 81626039, with Y161A; Crystallised with uncleaved cA4 (pre-cleavage state); Homodimer in the crystal; source: E. coli Rosetta (DE3), purified (Ni-NTA, 15Q, Superdex 200); not shown: His6, N-terminal, cleaved
For B3, the binding result in series [3] was “binds”.
